Experiments:
human TNFα [1] = biological target: T1, human TNFα (human, UniProt P01375); assay: SPR
human TNFα [2] = biological target: T1, human TNFα; assay: other, equilibrium analysis
human TNFα [3] = biological target: T1, human TNFα; assay: SPR; remark: listed apart in the source

T1 sequence (P01375 77-233): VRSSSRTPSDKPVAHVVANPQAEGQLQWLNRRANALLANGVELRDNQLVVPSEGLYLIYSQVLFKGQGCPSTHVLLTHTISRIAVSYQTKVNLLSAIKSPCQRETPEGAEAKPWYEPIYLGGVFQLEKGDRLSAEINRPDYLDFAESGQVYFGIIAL

Row | koff (human TNFα [1]) | Kd (human TNFα [2]) | Kd (human TNFα [3]) | Binder
1 | 0.0137 s⁻¹ | – | – | 2SD4 scFv (antibody, V domains shown) VH: QVQLVESGGGLVQPGRSLRLSCAASGFTFDDYAMHWVRQAPGKGLDWVSAITWNSGHIDYADSVEGRFAVSRDNAKNALYLQMNSLRPEDTAVYYCTKASYLSTSSSLDNWGQGTLVTVSS VL: DIQMTQSPSSLSASIGDRVTITCRASQGIRNYLAWYQQKPGKAPKLLIYAASTLQSGVPSRFSGSGSGTDFTLTISSLQPEDVATYYCQKYNSAPYAFGQGTKVEIK
2 | – | 0.48 nM | 20 nM | 2SD4 IgG4 (antibody, V domains shown) VH: QVQLVESGGGLVQPGRSLRLSCAASGFTFDDYAMHWVRQAPGKGLDWVSAITWNSGHIDYADSVEGRFAVSRDNAKNALYLQMNSLRPEDTAVYYCTKASYLSTSSSLDNWGQGTLVTVSS VL: DIQMTQSPSSLSASIGDRVTITCRASQGIRNYLAWYQQKPGKAPKLLIYAASTLQSGVPSRFSGSGSGTDFTLTISSLQPEDVATYYCQKYNSAPYAFGQGTKVEIK

Reference: patent US20120219564 (published 2012)
